Reference: the Immune Epitope Database (IEDB)

Key:
Assay in all cases: IEDB peptide-MHC binding, purified MHC/competitive/radioactivity; ≥ and ≤ were set here for values at or beyond the usual limits of such assays
Settings in all cases: source organism: Bordetella pertussis
HLA-B*44:03 = target: HLA-B*44:03
HLA-B*53:01 = target: HLA-B*53:01
HLA-B*57:01 = target: HLA-B*57:01
HLA-B*07:02 = target: HLA-B*07:02
HLA-B*35:01 = target: HLA-B*35:01

Sequence	IC50 (HLA-B*44:03) [µM]	IC50 (HLA-B*35:01) [µM]	also measured
GEIALGDAT	15.6		
HADWNNQSI			IC50 (HLA-B*53:01): 12.4 µM
KAKSLTTEI			IC50 (HLA-B*57:01): ≥ 70.4 µM
KEVDGIIQE	39.1		
LPPRPVVAE			IC50 (HLA-B*07:02): ≥ 77.5 µM
PFIIKLKDC		11.6	
PLPPRPVVA	55.9		
TPLPVSLTA		0.209	IC50 (HLA-B*53:01): 11.8 µM
VARLVKLQG			IC50 (HLA-B*57:01): ≥ 70.4 µM
VIGACTSPY		62.6	
YALKSRIAL		19.3	
YEVTPTRML	19		
YSTGDLRAY		31.4	
